Measured values taken from patent US20240209061A1, “FUSION PROTEINS AND USES THEREOF” (Pfizer Inc., priority 2020, published 2024).

What was measured:
[1] = Viscosity (Anton Paar rheometer); format: physicochemical; details: 20 mM histidine, 8.5% sucrose, pH 5.8
Method: The viscosity of CD80-Fc fusion proteins was assessed at various concentrations. Lower viscosity is desired for subcutaneous administration, and providing optimal syringeability and minimal pain to patients. Viscosity was measured using an Anton Paar rheometer and a CP-25 measuring system at 150 rpm. The sample comprised CD80-Fc fusion proteins in 20 mM histidine and 8.5% sucrose at pH 5.8.

[2] = Pharmacokinetics in cynomolgus monkeys; format: in vivo; details: cynomolgus monkey
Method: PK of variant CD80-Fc fusion proteins was assessed in non-human primates. […] A ligand binding assay using the Gyrolab Immunoassay platform was used to quantitate CD80-Fc molecules in cynomolgus monkey serum following dose administration. CD80-Fc constructs were captured onto the Gyrolab Bioaffy CD using a biotinylated monoclonal anti-human CD80 antibody (Thermo Fisher Cat #13-0809-82). Bound CD80-Fc constructs were detected using a mouse anti-human Fc antibody (SouthernBiotech Cat #9040-01) that was labeled with Alexa Fluor 647. Sample concentrations were determined by interpolation from a calibration curve that were fit using a 5-parameter logistic regression model. The range of quantitation of the assay was 100-15000 ng/ml in 100% serum. […] AUC (Area Under the Curve); Cmax (Maximum Concentration observed); Tmax (Time of Maximum concentration observed)

[3] = Pharmacokinetics in huFcRn transgenic mice; details: 0.1 mg/kg IV
Method: PK of CD80-Fc fusion proteins was also assessed in transgenic mice expressing the human neonatal Fc receptor (huFcRn) a-chain transgene under the control of its natural human promoter. Female mice were dosed intravenously with CD80-Fc fusion proteins at 0.1 mg/kg, and blood was collected at the timepoints indicated on the graph. Levels of CD80-Fc in mouse plasma were measured as described above.

[4] = tested on: peripheral blood mononuclear cells (PBMC); assay: RESTORE cytokine release assay in absence of TCR stimulation; format: cell-based, human; design: IFNγ: unit not given beside the values
Method: The ability of variant CD80-Fc fusion proteins to promote cytokine release in the absence of TCR stimulation was assessed in the RESTORE (RESetting T cells to Original Reactivity) assay (Römer et al, Blood, 2011). Freshly isolated peripheral blood mononuclear cells (PBMC) from whole blood of several healthy donors were cultured for 48 hours at […] within RPMI1640 media supplemented with 10% autologous plasma, 10 mM HEPES, 1× GlutaMAX, 1× PenStrep, beta2-mercaptoethanol, NEAA and sodium pyruvate. Following the 48-hour incubation, PBMC were pelleted and resuspended at a final concentration of 10^6/ml with indicated soluble drug. Treatment was allowed for 48 hours then supernatant was harvested and assessed in IL-2 and IFNγ ELISA according to manufacturer's protocol (BioLegend).
Positive controls included CD28 superagonist anti-CD28 clone TGN1412 as IgG1 and IgG4 isotypes and anti-CD3. […] Values shown are the average of 3 technical replicates. D=Donor.

Question: Which Viscosity ([1]; 101.65 mg/ml) does the source give for “CD80-WT-Fc: wild-type human CD80 extracellular domain fused to human IgG1 Fc (C220S) [reference compound]” here?
Answer: 35.7 cP

Question: And the Viscosity ([1]; 132.25 mg/ml)?
Answer: 158.8 cP

Question: And the AUC ([2]; 3 mpk IV)?
Answer: 2480 µg·h/mL

Question: What about the Cmax ([2]; 3 mpk IV) of the same substance?
Answer: 90.7 µg/mL

Question: What about the Tmax ([2]; 3 mpk IV) of the same substance?
Answer: 4.98 min

Question: And the AUC ([2]; 15 mpk IV)?
Answer: 13900 µg·h/mL

Question: And the Cmax ([2]; 15 mpk IV)?
Answer: 460 µg/mL

Question: What about the Tmax ([2]; 15 mpk IV) of the same substance?
Answer: 4.98 min

Question: What about the AUC ([2]; 50 mpk IV) of the same substance?
Answer: 37000 µg·h/mL

Question: And the Tmax ([2]; 50 mpk IV)?
Answer: 4.98 min

Question: What about the AUC [3] of the same substance?
Answer: 97 µg·h/mL

Question: And the CL [3]?
Answer: 20.2 mL/day/kg

Question: And the T1/2 [3]?
Answer: 80 h

Question: And the Vdss [3]?
Answer: 87 mL/kg

Question: And the Cmax ([3]; average of 3 animals)?
Answer: 2 µg/mL

Question: What about the IFNγ ([4]; Table 20, D222, 1 μg/ml) of the same substance?
Answer: 4.3

Question: What about the IL-2 ([4]; Table 20, D222, 1 μg/ml) of the same substance?
Answer: 7.7

Question: And the IFNγ ([4]; Table 20, D222, 10 μg/ml)?
Answer: 3.3

Question: And the IL-2 ([4]; Table 20, D222, 10 μg/ml)?
Answer: 9.3

Question: And the IFNγ ([4]; Table 20, D281, 1 μg/ml)?
Answer: 3.0

Question: And the IL-2 ([4]; Table 20, D281, 1 μg/ml)?
Answer: 3.0

Question: What about the IFNγ ([4]; Table 20, D281, 10 μg/ml) of the same substance?
Answer: 3.3

Question: What about the IL-2 ([4]; Table 20, D281, 10 μg/ml) of the same substance?
Answer: 2.0

Question: And the IFNγ ([4]; Table 20, D462, 1 μg/ml)?
Answer: 6.0

Question: What about the IL-2 ([4]; Table 20, D462, 1 μg/ml) of the same substance?
Answer: 1.7

Question: What about the IFNγ ([4]; Table 20, D462, 10 μg/ml) of the same substance?
Answer: 7.3

Question: And the IL-2 ([4]; Table 20, D462, 10 μg/ml)?
Answer: 2.0

Question: What about the IFNγ ([4]; Table 20, D547, 1 μg/ml) of the same substance?
Answer: 4.0

Question: And the IL-2 ([4]; Table 20, D547, 1 μg/ml)?
Answer: 9.0

Question: And the IFNγ ([4]; Table 20, D547, 10 μg/ml)?
Answer: 3.3

Question: What about the IL-2 ([4]; Table 20, D547, 10 μg/ml) of the same substance?
Answer: 5.3

Question: And the IL-2 ([4]; Table 21, D132, 1.9 μg/ml)?
Answer: 0.0

Question: What about the IL-2 ([4]; Table 21, D132, 5.6 μg/ml) of the same substance?
Answer: 0.0

Question: What about the IL-2 ([4]; Table 21, D132, 16.7 μg/ml) of the same substance?
Answer: 0.3

Question: And the IL-2 ([4]; Table 21, D149, 1.9 μg/ml)?
Answer: 0.3

Question: And the IL-2 ([4]; Table 21, D149, 5.6 μg/ml)?
Answer: 4.3

Question: And the IL-2 ([4]; Table 21, D149, 16.7 μg/ml)?
Answer: 0.0

Question: And the IL-2 ([4]; Table 21, D149, 50 μg/ml)?
Answer: 0.0

Question: And the IL-2 ([4]; Table 21, D379, 1.9 μg/ml)?
Answer: 3.3

Question: What about the IL-2 ([4]; Table 21, D379, 50 μg/ml) of the same substance?
Answer: 0.3

Question: What about the IL-2 ([4]; Table 21, D399, 1.9 μg/ml) of the same substance?
Answer: 0.0

Question: What about the IL-2 ([4]; Table 21, D399, 5.6 μg/ml) of the same substance?
Answer: 0.0

Question: And the IL-2 ([4]; Table 21, D399, 16.7 μg/ml)?
Answer: 0.0

Question: What about the IL-2 ([4]; Table 21, D399, 50 μg/ml) of the same substance?
Answer: 3.0

Question: And the IL-2 ([4]; Table 21, D417, 1.9 μg/ml)?
Answer: 5.7

Question: What about the IL-2 ([4]; Table 21, D417, 5.6 μg/ml) of the same substance?
Answer: 10.7

Question: What about the IL-2 ([4]; Table 21, D417, 16.7 μg/ml) of the same substance?
Answer: 0.3

Question: And the IL-2 ([4]; Table 21, D417, 50 μg/ml)?
Answer: 0.3

Question: What about the IL-2 ([4]; Table 21, D518, 1.9 μg/ml) of the same substance?
Answer: 4.7

Question: And the IL-2 ([4]; Table 21, D518, 5.6 μg/ml)?
Answer: 4.7

Question: And the IL-2 ([4]; Table 21, D518, 16.7 μg/ml)?
Answer: 1.3

Question: What about the IL-2 ([4]; Table 21, D518, 50 μg/ml) of the same substance?
Answer: 2.7

Question: And the IFNγ ([4]; Table 22, D132, 1.9 μg/ml)?
Answer: 14.3

Question: What about the IFNγ ([4]; Table 22, D132, 5.6 μg/ml) of the same substance?
Answer: 0.0

Question: And the IFNγ ([4]; Table 22, D132, 16.7 μg/ml)?
Answer: 0.0

Question: And the IFNγ ([4]; Table 22, D132, 50 μg/ml)?
Answer: 12.3

Question: And the IFNγ ([4]; Table 22, D149, 5.6 μg/ml)?
Answer: 0.0

Question: What about the IFNγ ([4]; Table 22, D149, 16.7 μg/ml) of the same substance?
Answer: 0.0

Question: What about the IFNγ ([4]; Table 22, D149, 50 μg/ml) of the same substance?
Answer: 5.7

Question: And the IFNγ ([4]; Table 22, D379, 1.9 μg/ml)?
Answer: 0.3

Question: What about the IFNγ ([4]; Table 22, D379, 5.6 μg/ml) of the same substance?
Answer: 0.0

Question: And the IFNγ ([4]; Table 22, D379, 16.7 μg/ml)?
Answer: 0.0

Question: What about the IFNγ ([4]; Table 22, D379, 50 μg/ml) of the same substance?
Answer: 0.0

Question: What about the IFNγ ([4]; Table 22, D399, 1.9 μg/ml) of the same substance?
Answer: 0.0

Question: And the IFNγ ([4]; Table 22, D399, 5.6 μg/ml)?
Answer: 0.0

Question: What about the IFNγ ([4]; Table 22, D399, 16.7 μg/ml) of the same substance?
Answer: 0.0

Question: And the IFNγ ([4]; Table 22, D399, 50 μg/ml)?
Answer: 18.3

Question: And the IFNγ ([4]; Table 22, D417, 1.9 μg/ml)?
Answer: 0.0

Question: And the IFNγ ([4]; Table 22, D417, 5.6 μg/ml)?
Answer: 146.7

Question: What about the IFNγ ([4]; Table 22, D417, 16.7 μg/ml) of the same substance?
Answer: 13.3

Question: And the IFNγ ([4]; Table 22, D417, 50 μg/ml)?
Answer: 0.0

Question: And the IFNγ ([4]; Table 22, D518, 1.9 μg/ml)?
Answer: 0.0

Question: What about the IFNγ ([4]; Table 22, D518, 5.6 μg/ml) of the same substance?
Answer: 0.0

Question: And the IFNγ ([4]; Table 22, D518, 16.7 μg/ml)?
Answer: 0.0

Question: What about the IFNγ ([4]; Table 22, D518, 50 μg/ml) of the same substance?
Answer: 0.0
